Measured values published in the supplement of paper PMC10567573.

B1: FCHO1 (parent)
chain: HLELTRKLQDLIKDVLRYGEEQLK
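Further: lentivirally expressed fusions sorted by FACS into six bins by GFP to DsRed ratio, PSI derived from sequencing read proportions per bin multiplied by bin number.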

Variants of: B1
Assay: protein stability index of a GFP-peptide fusion (GPS, HEK-293T) (PSI 1-6); higher = more stable
Details: c terminus: a fixed tail appended
With R6A the protein stability index was 1.45. Variant R6C has a protein stability index of 2.25. Variant R6D has a protein stability index of 1.84. R6E gave a protein stability index of 1.85. For R6F, the protein stability index was 1.9. Work on R6G yielded a protein stability index of 2.11. R6H showed a protein stability index of 3.21. Variant R6I has a protein stability index of 1.95. R6K showed a protein stability index of 2.69. In the case of R6L, the protein stability index is reported as 1.29. R6M showed a protein stability index of 1.46. Work on R6N yielded a protein stability index of 1.61. Work on R6P yielded a protein stability index of 1.79. With R6Q the protein stability index was 1.86. R6S gave a protein stability index of 2.4. Variant R6T has a protein stability index of 1.92. Variant R6V has a protein stability index of 1.69. For R6W, the protein stability index was 2.34. With R6Y the protein stability index was 1.9. In the case of K7A, the protein stability index is reported as 2.33. K7C gave a protein stability index of 1.55. K7D gave a protein stability index of 2.27. K7E gave a protein stability index of 2.28. For K7F, the protein stability index was 2.12. In the case of K7G, the protein stability index is reported as 2.68. K7H gave a protein stability index of 1.99. With K7I the protein stability index was 2.06. Variant K7L has a protein stability index of 3.41. K7M gave a protein stability index of 3.46. Work on K7N yielded a protein stability index of 2.03. Variant K7P has a protein stability index of 1.51. Variant K7Q has a protein stability index of 2.28. For K7R, the protein stability index was 2.78. With K7S the protein stability index was 2.75. K7T showed a protein stability index of 2.96. K7V showed a protein stability index of 1.74. In the case of K7W, the protein stability index is reported as 1.87. With K7Y the protein stability index was 1.78. In the case of L8A, the protein stability index is reported as 1.94. With L8C the protein stability index was 3.07. With L8D the protein stability index was 4.04. L8E gave a protein stability index of 3.62. For L8F, the protein stability index was 2.29. L8G gave a protein stability index of 2.46. Variant L8H has a protein stability index of 2.71. In the case of L8I, the protein stability index is reported as 4.57. L8K gave a protein stability index of 2.74. Variant L8M has a protein stability index of 1.45. Variant L8N has a protein stability index of 3.85. L8P showed a protein stability index of 2.71. Variant L8Q has a protein stability index of 3.3. Work on L8R yielded a protein stability index of 3.39. Work on L8S yielded a protein stability index of 3.28. For L8T, the protein stability index was 2.39. L8V gave a protein stability index of 1.97. For L8W, the protein stability index was 1.36. For L8Y, the protein stability index was 1.64. Work on Q9A yielded a protein stability index of 2.81. Q9D showed a protein stability index of 1.24. Variant Q9F has a protein stability index of 2.25. For Q9G, the protein stability index was 1.31. For Q9H, the protein stability index was 1.65. Q9I gave a protein stability index of 1.22. In the case of Q9K, the protein stability index is reported as 3.73. With Q9L the protein stability index was 2.26. Variant Q9M has a protein stability index of 3.55. In the case of Q9P, the protein stability index is reported as 2.81. In the case of Q9V, the protein stability index is reported as 2.56. Q9W gave a protein stability index of 2.68. With Q9Y the protein stability index was 3.31. In the case of D10A, the protein stability index is reported as 3.54. D10C gave a protein stability index of 3.93. For D10E, the protein stability index was 3.03. With D10G the protein stability index was 3.66. For D10I, the protein stability index was 3.93. For D10K, the protein stability index was 2.72. Variant D10L has a protein stability index of 1.44. For D10N, the protein stability index was 2.62. D10P gave a protein stability index of 1.99. D10R gave a protein stability index of 2.58. D10V showed a protein stability index of 4.56. Variant D10W has a protein stability index of 2.82. With D10Y the protein stability index was 4.45. Variant L11A has a protein stability index of 2.5. In the case of L11C, the protein stability index is reported as 1.67. In the case of L11D, the protein stability index is reported as 4.29. L11E showed a protein stability index of 4.22. L11F gave a protein stability index of 3.54. Variant L11G has a protein stability index of 2.38. With L11H the protein stability index was 2.51. L11I gave a protein stability index of 3.17. For L11K, the protein stability index was 2.38. For L11M, the protein stability index was 3.68. L11N gave a protein stability index of 2.56. L11P showed a protein stability index of 4.34. With L11Q the protein stability index was 2.47. For L11R, the protein stability index was 1.2. Work on L11S yielded a protein stability index of 2.67. Variant L11T has a protein stability index of 1.63. For L11Y, the protein stability index was 1.09. Work on I12A yielded a protein stability index of 2.27. I12C showed a protein stability index of 1.73. For I12D, the protein stability index was 4.11. For I12E, the protein stability index was 3.82. Variant I12F has a protein stability index of 2.57. Work on I12G yielded a protein stability index of 2.88. I12H gave a protein stability index of 3.05. Work on I12K yielded a protein stability index of 3.17. Variant I12L has a protein stability index of 1.77. In the case of I12M, the protein stability index is reported as 2.25. For I12N, the protein stability index was 4.18. In the case of I12P, the protein stability index is reported as 3.65. I12Q gave a protein stability index of 3.4. Work on I12R yielded a protein stability index of 3.39. I12S gave a protein stability index of 2.51. For I12T, the protein stability index was 2.31. For I12W, the protein stability index was 1.89. For I12Y, the protein stability index was 2.34. Work on K13A yielded a protein stability index of 2.14. In the case of K13C, the protein stability index is reported as 2.28. Variant K13D has a protein stability index of 2.06. K13E gave a protein stability index of 2.37. Variant K13F has a protein stability index of 1.59. K13G gave a protein stability index of 1.78. Work on K13H yielded a protein stability index of 1.8. K13I gave a protein stability index of 4.84. Variant K13L has a protein stability index of 4.09. Variant K13M has a protein stability index of 2.22. With K13N the protein stability index was 1.9. Variant K13P has a protein stability index of 2.63. Variant K13Q has a protein stability index of 1.59. K13R gave a protein stability index of 2.3. In the case of K13S, the protein stability index is reported as 2. In the case of K13T, the protein stability index is reported as 1.67. K13V showed a protein stability index of 2.29. Variant K13W has a protein stability index of 2.16. With K13Y the protein stability index was 1.33. D14A gave a protein stability index of 2.45. Work on D14C yielded a protein stability index of 3.08. D14E showed a protein stability index of 2.9. In the case of D14F, the protein stability index is reported as 1.77. Variant D14G has a protein stability index of 1.68. Variant D14H has a protein stability index of 3.31. D14I showed a protein stability index of 2.7. Work on D14K yielded a protein stability index of 4.59. For D14L, the protein stability index was 1.99. For D14M, the protein stability index was 1.3. Work on D14N yielded a protein stability index of 2.76. D14P showed a protein stability index of 2.97. D14Q gave a protein stability index of 4.72. D14R gave a protein stability index of 3.44. In the case of D14S, the protein stability index is reported as 3.79. D14V gave a protein stability index of 3.29. With D14Y the protein stability index was 2.66. In the case of V15A, the protein stability index is reported as 2.98. Work on V15D yielded a protein stability index of 4.22. For V15E, the protein stability index was 3.18. For V15F, the protein stability index was 2.12. V15G showed a protein stability index of 2.15. V15H gave a protein stability index of 1.83. Work on V15I yielded a protein stability index of 2.96. For V15K, the protein stability index was 1.87. In the case of V15M, the protein stability index is reported as 3.23. Variant V15N has a protein stability index of 2.98. V15P gave a protein stability index of 2.27. In the case of V15Q, the protein stability index is reported as 2.49. V15R gave a protein stability index of 2.74.
